From patent US20110300066A1

Target: CD20 (human) (UniProt P11836)
Experiment: cell-based or functional assay

CD20 (human), sequence (P11836 whole entry): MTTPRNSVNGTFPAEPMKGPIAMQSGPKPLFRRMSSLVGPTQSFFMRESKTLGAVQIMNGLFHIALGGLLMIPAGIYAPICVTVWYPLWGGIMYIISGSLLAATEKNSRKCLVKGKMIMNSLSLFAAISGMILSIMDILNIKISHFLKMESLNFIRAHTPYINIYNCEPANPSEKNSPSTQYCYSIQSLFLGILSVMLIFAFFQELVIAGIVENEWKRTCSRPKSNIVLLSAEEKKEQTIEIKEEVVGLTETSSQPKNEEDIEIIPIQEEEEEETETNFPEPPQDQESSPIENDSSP

## 20-Rap (antibody)
  in vitro cytotoxicity EC50, Daudi and Ramos cells: 0.0001 µM
  in vitro cytotoxicity EC50, Jeko-1 cells: 20 µM
